According to patent US9809835B2, “Quantitative control of sialylation” (Roche Diagnostics Operations, Inc., priority 2013, dated 2017):

T1: Δ89 hST6Gal-I (Homo sapiens, UniProt P15907)
T1 construct: the construct of Epo-AP-Δ89 hST6Gal-I was secreted without the N-terminal amino acids AP; Erythropoietin signal peptide (Epo) (N, cleaved yes); AP spacer (two amino acids) (N, cleaved yes); made in house; host or cells: HEK293 (transient gene expression, secreted)
T1 sequence (P15907 90-406): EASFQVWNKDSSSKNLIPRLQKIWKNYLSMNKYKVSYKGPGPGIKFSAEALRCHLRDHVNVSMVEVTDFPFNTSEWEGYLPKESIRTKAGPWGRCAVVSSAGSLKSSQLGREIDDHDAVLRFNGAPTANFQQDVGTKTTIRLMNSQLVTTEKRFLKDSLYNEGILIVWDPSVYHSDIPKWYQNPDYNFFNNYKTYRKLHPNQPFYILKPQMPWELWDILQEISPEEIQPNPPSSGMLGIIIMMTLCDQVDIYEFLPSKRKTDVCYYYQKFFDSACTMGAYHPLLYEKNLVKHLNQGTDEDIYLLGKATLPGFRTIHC


Tests used:
[1] = target: T1, Δ89 hST6Gal-I; assay: Inhibition of sialidase activity of Δ89 hST6Gal-I by CTP; type: biochemical
Experimental: The compound cytidine triphosphate (CTP) is a potent inhibitor of sialyltransferases (Scudder P R & Chantler E N B B A 660 (1981) 136-141). […] After 7 h of incubation the G2+2SA content was 94%. […] At different times samples were taken and the content of G2+0SA, G2+1SA and G2+2SA was determined by mass spectrometry. […] After 72 h of incubation 73% of G2+2SA were still present.

[2] = test system: MAB<IL-1R>; assay: Sialylation of humanized monoclonal antibody MAB<IL-1R> using Δ89 hST6Gal-I, glycan content by mass spectrometry; type: biochemical
Experimental: A highly galactosylated humanized monoclonal antibody IgG4 MAB<IL-1R>(WO 2005/023872) was used in sialylation experiments. […] The samples were incubated at 37° C. for a defined time. To stop the reaction the samples were frozen at −20° C. For mass analysis 100 μl denaturing buffer (6 M guanidinium chloride) and 30 μl TCEP (0.1 mM, diluted in denaturing buffer) were added to the samples and the samples were incubated at 37° C. for 1 h. The sample were buffered in electrospray-medium (20% ACN, 1% FA) using pre-equilibrated illustra™ Nap5-Columns (GE-Healthcare). Samples were analyzed by electrospray ionization mass spectrometry and the content of G2+0SA, G2+1SA and G2+2SA N-glycans was determined. A Micromass Q-Tof Ultima and a Synapt G2 HDMS device (Waters UK) were used, the software used was MassLynx V 4.1. To determine the kinetics of the sialylation the reaction was incubated up to 72 h.

Row | degradation of G2+2SA caused by the sialidase activity ([1]; CTP 0.67 mM, compared to inhibitor-free conditions) | G2+2SA still present ([1]; after 72 h of incubation, CTP added after 7 h, final concentration 0.67 mM) [%] | Molecule | content of the bi-sialylated form G2+2SA ([2]; after 2 hours of incubation, 37° C., 30 μg enzyme/300 μg MAB<IL-1R>, CMP-NANA donor) [%] | G2+2SA content ([2]; after 7 h of incubation, before addition of CTP (Example 11)) [%] | G2+1SA content ([2]; after an incubation of 48 h, 37° C., 30 μg enzyme/300 μg MAB<IL-1R>, CMP-NANA donor) [%] | dominant glycan species of MAB<IL-1R> (mass spectrum) ([2]; t=8 h) | dominant glycan species of MAB<IL-1R> (mass spectrum) ([2]; t=48 h)
1 | significantly reduced | 73 | Nc1ccn([C@@H]2O[C@H](COP(=O)(O)OP(=O)(O)OP(=O)(O)O)[C@@H](O)[C@H]2O)c(=O)n1 [CTP, cytidine triphosphate] |  |  |  |  | 
2 |  |  | Δ89 hST6Gal-I: N-terminally truncated human β-galactoside-α-2,6-sialyltransferase I, positions 1 to 89 of SEQ ID NO:1 deleted; amino acid sequence of SEQ ID NO:2 (protein, delta89 truncation variant of hST6Gal-I) EASFQVWNKDSSSKNLIPRLQKIWKNYLSMNKYKVSYKGPGPGIKFSAEALRCHLRDHVNVSMVEVTDFPFNTSEWEGYLPKESIRTKAGPWGRCAVVSSAGSLKSSQLGREIDDHDAVLRFNGAPTANFQQDVGTKTTIRLMNSQLVTTEKRFLKDSLYNEGILIVWDPSVYHSDIPKWYQNPDYNFFNNYKTYRKLHPNQPFYILKPQMPWELWDILQEISPEEIQPNPPSSGMLGIIIMMTLCDQVDIYEFLPSKRKTDVCYYYQKFFDSACTMGAYHPLLYEKNLVKHLNQGTDEDIYLLGKATLPGFRTIHC | 88 | 94 | 71 | G2+2SA is the dominant form | G2+1SA is the most abundant species
